# Assay results as given in patent US20100166734A1 (published 2010).
# Positions count from the first letter of the chain named.
# B1: 4D5 (VHH)
# VHH: EVQLVESGGGLVQAGGSLRLSCAASGLSFSKYAMGWFRQAPGKQREYVAVISSSDTTYYTNSAKGRFTISRDNAENTVYLQMNSLKPEDTAVYFCAADSYVTALQTLTQISYWGQGTQVTVSS
# notes: Tested as periplasmic extract
# B2: 4C11 (albumin binder) (VHH)
# VHH: B1 VHH with K31R, Y100F, S111N
# notes: Tested as periplasmic extract
# B3: 4D3 (VHH)
# VHH: EVQLVKSGGGLVQPGGSLRLSCAASGFTFSHYQMSWVRQAPGKDVEWVSSISMLGGGTTYADSVKGRFTISRDNAKSTLVLQMNNLKVEDTAVYYCARGFSGNYYRADLGQGTQVTVSS
# notes: Tested as periplasmic extract
# B4: 4A2 (VHH)
# VHH: EVQLVESGGGLVQAGGSLRLSCAASGLSFSSYAMGWFRQAPGKEREFVAAIRRREGNSYYADSVKGRFTISRDSAKNTVYLQMNSLKPEDTALYSCAATAPHYSGSFAYAGGYDYWGQGTQVTVSS
# notes: Tested as periplasmic extract
# B5: 4B8 (VHH)
# VHH: EVQLVESGGGLVQAGGSLRLSCAASGGTYSGNAMAWFRQAPGKEREFVAGIDWSSENTRYIDSVKGRFTISRDNAKNTMYLQMNSLKPEDTAVYYCAAGTSWGALASRLEAAYSSWGQGTQVTVSS
# notes: Tested as periplasmic extract
# B6: 4B5 (VHH)
# VHH: B5 VHH with G16D, G27R, G31R, N77S
# notes: Tested as periplasmic extract
# B7: 4B6 (VHH)
# VHH: B5 VHH with E1K, A14V, A23V, G27R, S30G, I61T, A111N, S115A
# notes: Tested as periplasmic extract
# B8: 4C4 (VHH)
# VHH: EVQLVESGGGLVQAGDSLRLSCAASGRPFMSYVMGWFRRAPGKEREFVGGINWGSGNTWYTDSVLGRFTISRDNAKNTVYLQMNSLKPEDTAVYYCATAAGVGYYRYERQYDYWGQGTQVTVSS
# notes: Tested as periplasmic extract
# B9: 4D7 (VHH)
# VHH: B8 VHH with M30S, G54N, T61S, Y80D, A100S
# notes: Tested as periplasmic extract
# B10: 4D10 (VHH)
# VHH: EVQLVESGGGLVQAGDSLRLSCTASERPFMSYVMGWFRRAPGKDREFVGAITWSGINTWYSDSVLGRFTISRDNAKNTVYLQMNSLKPEDTAVYYCAVADGVGLYRYERQYDYWGQGTQVTVSS
# notes: Tested as periplasmic extract
# B11: 4C5 (VHH)
# VHH: B8 VHH with M30S, S31A, G54N, G56A, R72K, T98A, A100G
# notes: Tested as periplasmic extract
# B12: 4A9 (VHH)
# VHH: EVQLVESGGGLVQAGGSLRLSCEASGFTLDYSGVGWFRQAPGKERELVSCISRGGDRAGYANSVKGRFTMSRDNAKNILYLQMNSLKPEDTAVYYCAATHSGSGCYDGAIDYWGKGTLVTVSS
# notes: Tested as periplasmic extract
# B13: 4C9 (VHH)
# VHH: EVQLVESGGGLVQAGDSLRLSCTASERPFSTYVMGWFRRAPGKEREFVGGITWSGINAWYTDSVLGRFTISSDNAKNTVYLQMNSLKPEDTAVYYCAAASGVGRYRYELQYDYWGQGTQVTVSS
# notes: Tested as periplasmic extract
# B14: 4C8 (VHH)
# VHH: EVQLVESGGGLVQAGDSLRLSCAASGRTYTPYVMGWFRRAPGKEREFVGAVSWSGTNTWYTDSVKGRFTISRDNAKNTVYLQMNSLKPEDTAVYYCAAGDGVGIYRYEHQYDYWGQGTQVTVSS
# notes: Tested as periplasmic extract
# B15: 4A6 (VHH)
# VHH: EVQLVESGGGLVQPGGSLRLSCAASPFTLDYYAIGWFRQAPGKEREGVSCSTSHGKTYHADSVKGRFTISRDNAKNTVYLQMNSLKPEDTAVYYCAAGACMGGSGYEADFGSWGQGTQVTVSS
# notes: Tested as periplasmic extract
# B16: 4B1 (VHH)
# VHH: B15 VHH with A23V, S25A, P26G, S51I, H54D, K56R, H59Y, N73M, N76K, T77M
# notes: Tested as periplasmic extract
# B17: 4C3 (VHH)
# VHH: EVQLVESGGGLVQAGGSLRLSCAASGRTFSSYAMAWFRQAPGEEREFVATISVSGGYTYYADSVKGRFTISRDNAKNTVYLQMNTLKPEDTAVYYCAAGDSSSWLEHMYDYWGQGTQVTVSS
# notes: Tested as periplasmic extract
# B18: 4D4 (VHH)
# VHH: EVQLVESGGGLVQAGDSLRLSCAASGRTFSPYVMGWFRRAPGKEREFVGGINWSGSNTWYTDSVKGRFTISRDNVKNMVYLQMNSLKPEDTAVYYCAAGSGVGMYRYERQYDYWGQGTQVTVSS
# notes: Tested as periplasmic extract
# B19: 4B10 (VHH)
# VHH: EVQLVESGGGLVQAGDSLRLSCAASGRTFSSYAMGWFRQAPGTERQFVARITGKGDSTDYADSVRGRFTISRDNAKNTVYLQMNSLKPEDTAVYYCAADAFNSLLQAGRAEYWGQGTQVTVSS
# notes: Tested as periplasmic extract
# B20: 4B11 (VHH)
# VHH: EVQLVESGGGLVQPGGSLRLSCAASGFTLDYYAIGWFRQAPGKEREGVSCISSSDMSDGITYYADSVKGRFTSSRDNVKNTVYLQMNSLKPEDTAVYYCATTFGDACTVVAGIPDQADFDSWGQGTQVTVSS
# notes: Carries myc and His tags
# B21: 1E7 (VHH)
# VHH: EVQLVESGGGLVQAGGSLRLSCAASGRTFSNYVMGWFRQAPGKEREFVAAISWSGVTTYHYSADSVKGRFTTSRDNDRNTAHLQMNSLKPEDTAVYYCAARGRTGSDPRKGDDYDYWGQGTQVTVSS
# notes: Carries a myc tag (detected with anti-myc)
# B22: 1D2 (VHH)
# VHH: EVQLVESGGGLVQPGGSLRLSCAASGFTLDYYAIGWFRRAPGKEREGVSCTSSSDGSTYYADSVKGRFTISRDNAKNTVYLQMNSLKPEDTAVYYCATTFGDACTVVAGIPDQYDFGSWGQGTQVTVSS
# notes: Carries myc and His tags
# B23: 1D7 (VHH)
# VHH: EVQLVESGGGLVQSGGSLRLSCAASGRAFNYYAMGWFRQAPGKERELVAVINWSGGTTSYADSVKGRFTISRSNAKNTVYLQMSSLKPEDTAVYYCAADSIYRTSKDYNYWGQGTQVTVSS
# notes: Carries myc and His tags (detected with anti-myc, pulled down on talon beads)
# B24: 4D9 (VHH)
# VHH: B22 VHH with A33D, R39Q
# B25: 4B7 (VHH)
# VHH: EVQLVESGGGLVQAGGSLRLSCAASGFTFDDYAIGWFRQAPGKEREGVSCISSRDGITYYADSVKGRFTISSDNAKNTVYLQMNSLKPEDTAVYYCAADLVGSFPCPVAAYDYWGQGTQVTVSS
# notes: Carries myc and His tags
# Molecular target: T1, human serum albumin (human, UniProt P02768 25-609)
# T1 construct: also called HSA
# Assay: SPR (Biacore), HSA amine-coupled on CM5, pH 7
row,koff [s⁻¹],Binder
1,0.0204,B1
2,0.0263,B2
3,0.00565,B3
4,0.00642,B4
5,0.000741,B5
6,0.00174,B6
7,0.000368,B7
8,0.000499,B8
9,0.000653,B9
10,0.000523,B10
11,0.000541,B11
12,0.013,B12
13,0.000441,B13
14,0.000624,B14
15,0.00173,B15
16,0.00875,B16
17,0.00112,B17
18,0.00602,B18
19,0.0499,B19

# Molecular target: T1, human serum albumin
# Assay: SPR (Biacore), HSA amine-coupled on CM5, pH 5
row,koff [s⁻¹],Binder
1,0.0263,B1
2,0.0312,B2
3,0.0137,B3
4,0.0227,B4
5,0.0018,B5
6,0.00403,B6
7,0.00119,B7
8,0.00121,B8
9,0.00158,B9
10,0.00341,B10
11,0.00132,B11
12,0.00701,B12
13,0.00171,B13
14,0.00209,B14
15,0.00999,B15
16,0.00773,B16
17,0.00375,B17
18,0.0166,B18
19,0.0434,B19

# Molecular target: T1, human serum albumin
# Assay: SPR (Biacore), ratio of the off rates at the two pH
row,Ratio pH 7/pH 5,Binder
1,1.29,B1
2,1.19,B2
3,2.42,B3
4,3.54,B4
5,2.43,B5
6,2.32,B6
7,3.23,B7
8,2.42,B8
9,2.42,B9
10,6.52,B10
11,2.44,B11
12,0.54,B12
13,3.88,B13
14,3.35,B14
15,5.77,B15
16,0.88,B16
17,3.35,B17
18,2.76,B18
19,0.87,B19

# Molecular target: T2, human pIgR overexpressed in MDCK cells (human, UniProt P01833 19-764)
# T2 construct: whole, on cells; also called hpIgR; human polymeric immunoglobulin receptor
# Assay: immunofluorescence on MDCK cells overexpressing human pIgR, 3 uM purified Nanobody at 4C, anti-myc detection
# T2 sequence (P01833 19-764): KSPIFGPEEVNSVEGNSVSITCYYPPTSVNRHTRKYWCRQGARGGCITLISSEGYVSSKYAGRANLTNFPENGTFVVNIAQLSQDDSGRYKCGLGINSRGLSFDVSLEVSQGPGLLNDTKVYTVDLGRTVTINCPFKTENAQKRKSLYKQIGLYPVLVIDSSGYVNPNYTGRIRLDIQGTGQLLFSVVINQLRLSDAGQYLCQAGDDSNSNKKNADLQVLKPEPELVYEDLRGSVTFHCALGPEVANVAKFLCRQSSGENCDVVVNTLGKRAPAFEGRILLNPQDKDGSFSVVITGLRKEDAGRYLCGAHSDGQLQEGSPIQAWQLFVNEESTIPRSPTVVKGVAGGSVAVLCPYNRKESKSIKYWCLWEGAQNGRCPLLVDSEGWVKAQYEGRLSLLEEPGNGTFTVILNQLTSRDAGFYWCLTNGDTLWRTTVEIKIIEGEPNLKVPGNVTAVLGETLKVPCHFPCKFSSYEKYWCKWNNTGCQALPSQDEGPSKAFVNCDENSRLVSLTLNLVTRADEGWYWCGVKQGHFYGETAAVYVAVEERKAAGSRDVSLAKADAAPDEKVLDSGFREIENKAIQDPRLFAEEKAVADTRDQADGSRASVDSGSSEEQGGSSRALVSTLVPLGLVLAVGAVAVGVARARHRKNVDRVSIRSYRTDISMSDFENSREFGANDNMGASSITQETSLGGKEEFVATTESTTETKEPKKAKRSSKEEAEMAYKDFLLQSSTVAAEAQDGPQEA
row,binding result,Binder
1,binds,B20
2,binds,B21
3,binds,B22

# Molecular target: T3, ectodomain of human pIgR (R&D Systems Cat #2717-PG) (human, UniProt P01833 19-638)
# T3 construct: extracellular domain; Immobilised on Maxisorp plates at 5 ug/ml; also called pIgR ectodomain
# Assay: competition ELISA, dilution series of purified Nanobody against 1 ug/ml IgA on immobilised pIgR ectodomain
# T3 sequence (P01833 19-638): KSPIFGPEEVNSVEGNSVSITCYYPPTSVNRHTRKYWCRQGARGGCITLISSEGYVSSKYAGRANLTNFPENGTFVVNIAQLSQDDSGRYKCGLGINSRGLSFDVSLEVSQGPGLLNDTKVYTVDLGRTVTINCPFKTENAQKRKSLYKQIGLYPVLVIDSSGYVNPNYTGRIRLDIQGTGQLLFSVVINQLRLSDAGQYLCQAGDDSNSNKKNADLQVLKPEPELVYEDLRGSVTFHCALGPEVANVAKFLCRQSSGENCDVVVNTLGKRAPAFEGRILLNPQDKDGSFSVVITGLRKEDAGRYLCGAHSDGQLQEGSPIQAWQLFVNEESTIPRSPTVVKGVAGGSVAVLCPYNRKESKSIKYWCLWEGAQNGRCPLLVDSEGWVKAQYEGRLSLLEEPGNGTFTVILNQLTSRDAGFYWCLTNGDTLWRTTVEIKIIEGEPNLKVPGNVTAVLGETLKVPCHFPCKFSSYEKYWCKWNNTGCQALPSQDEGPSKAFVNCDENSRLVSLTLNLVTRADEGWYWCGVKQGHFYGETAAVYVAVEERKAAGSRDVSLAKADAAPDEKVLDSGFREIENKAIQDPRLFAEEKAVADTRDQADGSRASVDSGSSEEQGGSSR
row,binding result,Binder
1,binds,B23
2,binds,B20
3,binds,B21
4,binds,B22
5,binds,B24

# Molecular target: T2, human pIgR overexpressed in MDCK cells
# Assay: immunoprecipitation from cell lysates with His-tagged nanobodies on talon beads, blot with a-hSC
row,binding result,Binder
1,binds,B23
2,binds,B25
